Article PMC9381698, “Generation of synthetic antibody fragments with optimal complementarity determining region lengths for Notch-1 recognition” (Frontiers in Microbiology, 2022)

How the values were obtained:
[1] = molecular target: T1, recombinant Fc-tag-fused human Notch-1 extracellular domain (Homo sapiens, UniProt P46531); assay: BLI; Octet RED384; Fabs immobilised on amine-reactive generation-2 or anti-Fab CH1 biosensors, target proteins in solution at three or more concentrations; 25 C, PBS; global 1:1 fit; apparent KD (Fc-Notch proteins may dimerize, avidity); conditions: both partners purified
T1 construct: Notch-1, human, extracellular domain; No catalogue number and no residue limits are printed; also called N1; source: bought: R&D Systems
T1 sequence (P46531 19-1735): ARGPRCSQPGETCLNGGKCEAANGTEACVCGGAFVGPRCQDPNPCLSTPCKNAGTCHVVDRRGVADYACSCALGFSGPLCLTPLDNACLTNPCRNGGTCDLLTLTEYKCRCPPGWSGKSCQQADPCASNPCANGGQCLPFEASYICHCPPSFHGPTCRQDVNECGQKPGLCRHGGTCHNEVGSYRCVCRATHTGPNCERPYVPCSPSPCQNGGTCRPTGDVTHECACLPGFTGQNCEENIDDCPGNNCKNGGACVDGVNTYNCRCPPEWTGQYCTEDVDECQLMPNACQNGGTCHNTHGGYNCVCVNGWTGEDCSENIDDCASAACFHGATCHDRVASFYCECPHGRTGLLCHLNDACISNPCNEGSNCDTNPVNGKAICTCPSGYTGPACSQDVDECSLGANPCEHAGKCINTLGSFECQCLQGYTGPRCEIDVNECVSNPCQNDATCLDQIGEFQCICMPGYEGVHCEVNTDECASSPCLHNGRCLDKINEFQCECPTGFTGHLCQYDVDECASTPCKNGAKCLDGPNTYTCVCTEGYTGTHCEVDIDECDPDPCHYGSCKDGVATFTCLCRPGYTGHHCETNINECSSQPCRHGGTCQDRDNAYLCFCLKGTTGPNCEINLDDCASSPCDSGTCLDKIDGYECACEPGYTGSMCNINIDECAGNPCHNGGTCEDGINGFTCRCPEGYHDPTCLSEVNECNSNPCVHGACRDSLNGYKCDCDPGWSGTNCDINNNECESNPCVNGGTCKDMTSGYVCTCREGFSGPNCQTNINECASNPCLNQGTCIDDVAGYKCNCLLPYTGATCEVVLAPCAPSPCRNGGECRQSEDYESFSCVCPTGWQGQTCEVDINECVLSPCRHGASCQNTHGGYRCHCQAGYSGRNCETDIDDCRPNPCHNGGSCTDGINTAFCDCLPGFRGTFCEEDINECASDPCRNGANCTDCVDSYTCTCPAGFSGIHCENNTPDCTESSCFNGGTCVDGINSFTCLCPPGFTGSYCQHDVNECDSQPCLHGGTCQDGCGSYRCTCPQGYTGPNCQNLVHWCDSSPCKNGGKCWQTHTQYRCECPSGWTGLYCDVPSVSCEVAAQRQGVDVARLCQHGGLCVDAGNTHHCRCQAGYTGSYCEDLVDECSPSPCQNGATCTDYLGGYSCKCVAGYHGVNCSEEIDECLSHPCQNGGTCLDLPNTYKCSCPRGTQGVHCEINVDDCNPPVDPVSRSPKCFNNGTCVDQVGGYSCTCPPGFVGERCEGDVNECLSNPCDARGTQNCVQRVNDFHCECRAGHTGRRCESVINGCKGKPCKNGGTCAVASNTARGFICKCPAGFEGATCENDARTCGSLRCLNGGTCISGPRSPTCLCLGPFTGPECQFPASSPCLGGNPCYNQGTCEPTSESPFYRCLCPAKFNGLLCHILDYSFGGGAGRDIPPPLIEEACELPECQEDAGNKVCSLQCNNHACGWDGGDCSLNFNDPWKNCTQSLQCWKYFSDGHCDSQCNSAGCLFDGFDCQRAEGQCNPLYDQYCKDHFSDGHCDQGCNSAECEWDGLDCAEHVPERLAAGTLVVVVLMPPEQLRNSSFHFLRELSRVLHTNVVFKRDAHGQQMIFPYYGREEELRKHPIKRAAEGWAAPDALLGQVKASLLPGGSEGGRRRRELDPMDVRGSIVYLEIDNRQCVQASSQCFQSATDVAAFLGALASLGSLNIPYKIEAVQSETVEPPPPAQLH

[2] = molecular target: T1, recombinant Fc-tag-fused human Notch-1 …; assay: ELISA; multi-point Fab-ELISA: target immobilised at 5 ug/ml on MaxiSorp plates; purified Fab 0.01 nM-1 uM in PT for 30 min; detected with HRP-conjugated anti-HIS antibody; EC50 from a one-site specific-binding fit; conditions: both partners purified
[3] = molecular target: T2, recombinant Fc-tag-fused human Notch-1 extracellular domain (Homo sapiens, UniProt P46531); assay: BLI; Fabs immobilised on amine-reactive generation-2 or anti-Fab CH1 biosensors, target proteins in solution at at least three concentrations; 25°C, PBS; global fit to a 1:1 binding model; apparent constants (Fc fusions may dimerize); conditions: both partners purified
T2 construct: Notch-1, human, extracellular domain; the R&D Systems product may hold only part of the ectodomain (surmise); also called N1; Fc-Notch; source: bought: R&D Systems
T2 sequence (P46531 19-1735): as above

[4] = molecular target: T3, Jagged-2 receptor ectodomain (Homo sapiens (assumed), UniProt Q9Y219); assay: ELISA; single-point Fab-ELISA for specificity: proteins immobilised at 5 ug/ml on MaxiSorp plates; purified Fab at 1 uM; detected with HRP-conjugated anti-HIS antibody, Abs450; conditions: both partners purified
T3 construct: Jagged-2 ectodomain; it may be an Fc fusion like the Notch proteins; also called J2
T3 sequence (Q9Y219 27-1080): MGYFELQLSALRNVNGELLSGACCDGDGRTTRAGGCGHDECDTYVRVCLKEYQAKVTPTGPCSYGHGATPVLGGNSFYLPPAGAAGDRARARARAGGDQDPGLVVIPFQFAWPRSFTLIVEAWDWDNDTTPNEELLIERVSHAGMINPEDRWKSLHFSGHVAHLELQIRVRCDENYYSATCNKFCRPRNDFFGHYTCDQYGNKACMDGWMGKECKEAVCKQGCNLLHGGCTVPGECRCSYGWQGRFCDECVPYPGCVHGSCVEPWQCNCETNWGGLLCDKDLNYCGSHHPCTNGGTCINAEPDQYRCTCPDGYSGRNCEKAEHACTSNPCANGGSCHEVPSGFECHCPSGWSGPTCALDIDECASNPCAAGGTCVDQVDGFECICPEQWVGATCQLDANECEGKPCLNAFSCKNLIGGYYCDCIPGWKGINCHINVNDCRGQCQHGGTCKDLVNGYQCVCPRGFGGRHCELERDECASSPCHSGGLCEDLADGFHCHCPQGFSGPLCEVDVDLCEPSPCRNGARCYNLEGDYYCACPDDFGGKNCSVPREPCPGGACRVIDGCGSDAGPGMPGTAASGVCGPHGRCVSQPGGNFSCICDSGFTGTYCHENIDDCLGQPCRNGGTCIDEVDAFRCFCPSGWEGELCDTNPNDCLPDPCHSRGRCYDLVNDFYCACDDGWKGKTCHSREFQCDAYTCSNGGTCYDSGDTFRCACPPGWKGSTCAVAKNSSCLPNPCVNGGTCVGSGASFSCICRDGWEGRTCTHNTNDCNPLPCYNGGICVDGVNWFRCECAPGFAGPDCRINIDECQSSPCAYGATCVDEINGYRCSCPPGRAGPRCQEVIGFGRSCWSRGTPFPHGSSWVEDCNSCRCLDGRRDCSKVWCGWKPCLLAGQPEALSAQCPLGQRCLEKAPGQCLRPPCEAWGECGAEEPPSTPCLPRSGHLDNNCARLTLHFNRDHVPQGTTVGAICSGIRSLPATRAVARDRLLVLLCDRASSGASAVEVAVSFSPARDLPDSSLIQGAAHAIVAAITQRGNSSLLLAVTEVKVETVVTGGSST

[5] = molecular target: T1, recombinant Fc-tag-fused human Notch-1 …; assay: ELISA; phage-ELISA: Notch-1 and control proteins immobilised at 5 ug/ml on MaxiSorp plates; phage-displayed Fab at 10^12 PFU/ml in PBT for 30 min; detected with HRP-conjugated anti-M13 antibody, Abs450; conditions: one partner purified

B1: Fab N1/F/2 (purified soluble Fab) (Fab, V domains shown)
VH: EVQLVESGGGLVQPGGSLRLSCAASGFNLSSYSIHWVRQAPGKGLEWVASISSSYGYTYYADSVKGRFTISADTSKNTAYLQMNSLRAEDTAVYYCARGYYAFDYWGQGTLVTVSS
VL: DIQMTQSPSSLSASVGDRVTITCRASQSVSSAVAWYQQKPGKAPKLLIYSASSLYSGVPSRFSGSRSGTDFTLTISSLQPEDFATYYCQQWWSFPLITFGQGTKVEIK
notes: light chain on the modified trastuzumab framework of Library-F (Persson et al., 2013); CDRs L1 and L2 fixed; Fab heavy chain on the modified trastuzumab framework of Library-F; short CDRH3; The Fab is detected by an anti-HIS antibody; source: E. coli BL21, purified (Protein-L resin)
- Kd [1]: 0.45 ± 0.05 nM
- EC50 [2]: ~4 nM

B2: Fab N1/F/3 (Fab, V domains shown)
VH: EVQLVESGGGLVQPGGSLRLSCAASGFNLYSYYIHWVRQAPGKGLEWVASISSYYGYTSYADSVKGRFTISADTSKNTAYLQMNSLRAEDTAVYYCARYWHGALDYWGQGTLVTVSS
VL: DIQMTQSPSSLSASVGDRVTITCRASQSVSSAVAWYQQKPGKAPKLLIYSASSLYSGVPSRFSGSRSGTDFTLTISSLQPEDFATYYCQQGYFTYLFTFGQGTKVEIK
notes: Library-F Fab on a modified trastuzumab framework; Library-F Fab on a modified trastuzumab framework, CDRs L1 and L2 fixed; The Fab has a His tag (detected with anti-HIS antibody and biosensors); Library-F framework: Persson et al., 2013; source: E. coli BL21, purified (Protein-L resin)
- koff [3]: 0.000218 s⁻¹
- kon [3]: 122000 M⁻¹ s⁻¹

B3: Fab N1/F/3 (purified soluble Fab) (Fab, V domains shown)
VH: EVQLVESGGGLVQPGGSLRLSCAASGFNLYSYYIHWVRQAPGKGLEWVASISSYYGYTSYADSVKGRFTISADTSKNTAYLQMNSLRAEDTAVYYCARYWHGALDYWGQGTLVTVSS
VL: DIQMTQSPSSLSASVGDRVTITCRASQSVSSAVAWYQQKPGKAPKLLIYSASSLYSGVPSRFSGSRSGTDFTLTISSLQPEDFATYYCQQGYFTYLFTFGQGTKVEIK
notes: as for B1
- binding result [4]: binds
- Kd [1]: 1.88 nM
- EC50 [2]: ~4 nM

B4: Fab N1/F/2 (Fab, V domains shown)
VH: EVQLVESGGGLVQPGGSLRLSCAASGFNLSSYSIHWVRQAPGKGLEWVASISSSYGYTYYADSVKGRFTISADTSKNTAYLQMNSLRAEDTAVYYCARGYYAFDYWGQGTLVTVSS
VL: DIQMTQSPSSLSASVGDRVTITCRASQSVSSAVAWYQQKPGKAPKLLIYSASSLYSGVPSRFSGSRSGTDFTLTISSLQPEDFATYYCQQWWSFPLITFGQGTKVEIK
notes: as for B2
- koff [3]: 0.000123 s⁻¹
- kon [3]: 322000 M⁻¹ s⁻¹

B5: phage-displayed Fab N1/ModF/1 (Fab, V domains shown)
VH: EVQLVESGGGLVQPGGSLRLSCAASGFNLYSSYMHWVRQAPGKGLEWVAYISPSYSYTYYADSVKGRFTISADTSKNTAYLQMNSLRAEDTAVYYCARWGHSPSGVGWYGALDYWGQGTLVTVSS
VL: DIQMTQSPSSLSASVGDRVTITCRASQSVSSAVAWYQQKPGKAPKLLIYSASSLYSGVPSRFSGSRSGTDFTLTISSLQPEDFATYYCQQPSSHSAALITFGQGTKVEIK
notes: light chain on the modified trastuzumab framework of the Modified-F library (template: anti-MBP Fab phagemid of Library-F, Persson et al., 2013); CDRs L1 and L2 fixed; Fab heavy chain on the modified trastuzumab framework of the Modified-F library; The Modified-F library uses an M13 system that allows bivalent Fab display
- binding result [5]: binds

B6: Fab N1/ModF/5 (purified soluble Fab) (Fab, V domains shown)
VH: EVQLVESGGGLVQPGGSLRLSCAASGFNISSSYMHWVRQAPGKGLEWVASIYSYSGSTYYADSVKGRFTISADTSKNTAYLQMNSLRAEDTAVYYCARSGYSGVSGSVYSYWPFYGLDYWGQGTLVTVSS
VL: DIQMTQSPSSLSASVGDRVTITCRASQSVSSAVAWYQQKPGKAPKLLIYSASSLYSGVPSRFSGSRSGTDFTLTISSLQPEDFATYYCQQGPYHGYSLITFGQGTKVEIK
notes: light chain on the modified trastuzumab framework of the Modified-F library (template: anti-MBP Fab phagemid of Library-F, Persson et al., 2013); CDRs L1 and L2 fixed; Fab heavy chain on the modified trastuzumab framework of the Modified-F library; long CDRH3; The Fab is detected by an anti-HIS antibody; source: E. coli BL21, purified (Protein-L resin)
- Kd [1]: 0.68 nM
- EC50 [2]: 2.4 nM

B7: Fab N1/ModF/2 (Fab, V domains shown)
VH: EVQLVESGGGLVQPGGSLRLSCAASGFNLYSSYIHWVRQAPGKGLEWVAYISPYSGSTYYADSVKGRFTISADTSKNTAYLQMNSLRAEDTAVYYCARYGYAYHPYHSGYWYGALDYWGQGTLVTVSS
VL: DIQMTQSPSSLSASVGDRVTITCRASQSVSSAVAWYQQKPGKAPKLLIYSASSLYSGVPSRFSGSRSGTDFTLTISSLQPEDFATYYCQQVSAGYGPPITFGQGTKVEIK
notes: Modified-F library Fab on a modified trastuzumab framework; Modified-F library Fab on a modified trastuzumab framework, CDRs L1 and L2 fixed; The Fab has a His tag (detected with anti-HIS antibody and biosensors); Template phagemid derived from the anti-MBP Fab of Library-F (Persson et al., 2013); source: E. coli BL21, purified (Protein-L resin)
- koff [3]: 1.91e-05 s⁻¹
- kon [3]: 158000 M⁻¹ s⁻¹

B8: Fab N1/ModF/2 (purified soluble Fab) (Fab, V domains shown)
VH: EVQLVESGGGLVQPGGSLRLSCAASGFNLYSSYIHWVRQAPGKGLEWVAYISPYSGSTYYADSVKGRFTISADTSKNTAYLQMNSLRAEDTAVYYCARYGYAYHPYHSGYWYGALDYWGQGTLVTVSS
VL: DIQMTQSPSSLSASVGDRVTITCRASQSVSSAVAWYQQKPGKAPKLLIYSASSLYSGVPSRFSGSRSGTDFTLTISSLQPEDFATYYCQQVSAGYGPPITFGQGTKVEIK
notes: as for B6
- Kd [1]: 0.16 nM
- EC50 [2]: 1.7 nM

B9: Fab N1/ModF/5 (Fab, V domains shown)
VH: EVQLVESGGGLVQPGGSLRLSCAASGFNISSSYMHWVRQAPGKGLEWVASIYSYSGSTYYADSVKGRFTISADTSKNTAYLQMNSLRAEDTAVYYCARSGYSGVSGSVYSYWPFYGLDYWGQGTLVTVSS
VL: DIQMTQSPSSLSASVGDRVTITCRASQSVSSAVAWYQQKPGKAPKLLIYSASSLYSGVPSRFSGSRSGTDFTLTISSLQPEDFATYYCQQGPYHGYSLITFGQGTKVEIK
notes: as for B7
- koff [3]: 8.15e-05 s⁻¹
- kon [3]: 124000 M⁻¹ s⁻¹
